Data as given in patent US7407934.
Residue numbers refer to the chain shown, from its start. Positions of bridges follow the written chain, without caps; N, C: chain ends. No end group written: not given here.

B1: 18Arg25,28Pro-h-Amylin (peptide)
peptide: KCNTATCATQRLANFLVRSSNNFGPILPSTNVGSNTY
modifications: 2,7-disulfide; made on methylbenzhydrylamine resin (C-terminal amide not printed in so many words)
B2: des-1Lys18Arg25,28Pro-h-Amylin (peptide)
peptide: CNTATCATQRLANFLVRSSNNFGPILPSTNVGSNTY
modifications: 2,7-disulfide; made on methylbenzhydrylamine resin (C-terminal amide not printed in so many words)
B3: 18Arg25,28,29Pro-h-Amylin (peptide)
peptide: B1 peptide with S29P
modifications: 2,7-disulfide; made on methylbenzhydrylamine resin (C-terminal amide not printed in so many words)
B4: des-1Lys18Arg25,28,29Pro-h-Amylin (peptide)
peptide: B2 peptide with S28P
modifications: 2,7-disulfide; made on methylbenzhydrylamine resin (C-terminal amide not printed in so many words)
B5: des-1Lys25,28,29Pro-h-Amylin (peptide)
peptide: B2 peptide with R17H, S28P
modifications: 2,7-disulfide; made on methylbenzhydrylamine resin (C-terminal amide not printed in so many words)
B6: 25Pro26Val28,29Pro-h-Amylin (peptide)
peptide: B1 peptide with R18H, I26V, S29P
modifications: 2,7-disulfide; made on methylbenzhydrylamine resin (C-terminal amide not printed in so many words)

The binders below were run against amylin receptor (rat basal forebrain membranes containing the nucleus accumbens and surrounding regions) (rat) (assay: competition with 125I-Bolton-Hunter rat amylin on rat basal forebrain membranes, filtration).

Row | Binder | IC50 [nM]
1 | KCNTATCATQRLANFLVHSSNNFGPILPSTNVGSNTY (peptide, from a related filing) [25,28Pro-h-Amylin] | 0.026
2 | CNTATCATQRLANFLVHSSNNFGPILPSTNVGSNTY (peptide, from a related filing) [des-1Lys25,28Pro-h-Amylin] | 0.085
3 | B1 | 0.032
4 | B2 | 0.082
5 | B3 | 0.021
6 | B4 | 0.021
7 | B5 | 0.014
8 | B6 | 0.018
9 | KDNTATKATQRLANFLVHSSNNFGAILSSTNVGSNTY (peptide, from a related filing, lactam 2-7; ends not checked) [2,7Cyclo-[2Asp,7Lys]-h-Amylin] | 0.31
